Data from US20230025280A1, “PH RESPONSIVE COMPOSITIONS, FORMULATIONS, AND METHODS OF IMAGING A TUMOR” (ONCONANO MEDICINE, INC, priority 2019, published 2023).

Columns and labels:
occult lesions = assay: Detection of occult disease by Compound 1 fluorescence; assay type: in vivo, human
Text: During surgery, intraoperative images of Compound 1 fluorescence were obtained from the primary tumors and metastatic lymph nodes as well as the surrounding tissue which include normal noncancerous tissues using NIR camera(s). This may be in vivo and/or ex vivo imaging of resected specimens. If the surgeon considered it safe, up to a maximum of 10 study related biopsies were taken from the regions with Compound 1 fluorescence that were otherwise not suspected as tumor clinically. Feasibility to image tumors with Compound 1 using multiple NIR cameras was evaluated.
Compound 1 fluorescence detected 5 additional occult lesions (1 patient with HNSCC and 4 patients with BC) otherwise missed by SOC preoperative surgery or during surgery or postoperative pathology. In 1 patient with HNSCC (ON1113) who had both a fluorescent and histopathological positive surgical margin, a satellite metastasis that was otherwise undetected by standard-of-care surgery was detected in the wound bed by Compound 1 fluorescence image-guided surgery.

[1] = Stability of Compound 1 at long-term storage condition of −80° C.; assay type: physicochemical
[2] = pH-dependent activation of Compound 1 in human plasma

PEO90-140-b-P(DBA60-150-r-ICG0-3-r-AMA0-3) [Compound 1]
Additional occult lesions detected (occult lesions; 1 patient with HNSCC and 4 patients with BC): 5
Other occult tumors detected by in vivo wound-bed imaging (occult lesions; missed by routine surgery, confirmed by pathology): 2
Additional satellite lesions and second primaries detected ex vivo (occult lesions; pathology specimens): 3
% ICG 784 nm (% wt) ([1]; 0 months): 1.3%
Appearance ([1]; 0 months): Pass
Assay RID - Polymeric Content SEC (% wt) ([1]; 0 months): 96.4%
Content 784 nm (% wt) ([1]; 0 months): 80.9%
Identification - SEC (RT) ([1]; 0 months): Pass
Impurities Specified: ICG-like ([1]; 0 months): 1.9%
Microbial Limits Total aerobic count ([1]; 0 months): <1 cfu/mg
Microbial Limits Total yeast and mold ([1]; 0 months): <1 cfu/mg
Total Impurities ([1]; 0 months): 1.9%
Water Content ([1]; 0 months): 0.48%
Duration stable at long-term storage condition ([1]; 3.0 mg/mL injection, the duration thus far): up to 24 months
% ICG 784 nm (% wt) ([1]; 1 month): 1.4%
Appearance ([1]; 1 month): Pass
Assay RID - Polymeric Content SEC (% wt) ([1]; 1 month): 98.5%
Content 784 nm (% wt) ([1]; 1 month): 82.0%
Identification - SEC (RT) ([1]; 1 month): Pass
Impurities Specified: ICG-like ([1]; 1 month): 1.8%
Total Impurities ([1]; 1 month): 1.8%
Water Content ([1]; 1 month): 0.33%
% ICG 784 nm (% wt) ([1]; 6 months): 1.4%
Appearance ([1]; 6 months): Pass
Assay RID - Polymeric Content SEC (% wt) ([1]; 6 months): 102.3%
Content 784 nm (% wt) ([1]; 6 months): 86.2%
Identification - SEC (RT) ([1]; 6 months): Pass
Impurities Specified: ICG-like ([1]; 6 months): 1.7%
Total Impurities ([1]; 6 months): 1.7%
Water Content ([1]; 6 months): 0.54%
% ICG 784 nm (% wt) ([1]; 12 months): 1.3%
Appearance ([1]; 12 months): Pass
Assay RID - Polymeric Content SEC (% wt) ([1]; 12 months): 90.4%
Content 784 nm (% wt) ([1]; 12 months): 74.7%
Identification - SEC (RT) ([1]; 12 months): Pass
Impurities Specified: ICG-like ([1]; 12 months): 1.7%
Microbial Limits Total aerobic count ([1]; 12 months): <1 cfu/mg
Microbial Limits Total yeast and mold ([1]; 12 months): <1 cfu/mg
Total Impurities ([1]; 12 months): 1.7%
Water Content ([1]; 12 months): 0.74%
% ICG 784 nm (% wt) ([1]; 18 months): 1.5%
Appearance ([1]; 18 months): Pass
Assay RID - Polymeric Content SEC (% wt) ([1]; 18 months): 100.4%
Content 784 nm (% wt) ([1]; 18 months): 94.7%
Identification - SEC (RT) ([1]; 18 months): Pass
Impurities Specified: ICG-like ([1]; 18 months): 0.6%
Total Impurities ([1]; 18 months): 0.6%
Water Content ([1]; 18 months): 0.64%
% ICG 784 nm (% wt) ([1]; 24 months): 1.5%
Appearance ([1]; 24 months): Pass
Assay RID - Polymeric Content SEC (% wt) ([1]; 24 months): 99.7%
Content 784 nm (% wt) ([1]; 24 months): 98.1%
Identification - SEC (RT) ([1]; 24 months): Pass
Impurities Specified: ICG-like ([1]; 24 months): 0.6%
Microbial Limits Total aerobic count ([1]; 24 months): <1 cfu/mg
Microbial Limits Total yeast and mold ([1]; 24 months): <1 cfu/mg
Total Impurities ([1]; 24 months): 0.6%
Water Content ([1]; 24 months): 0.51%
Fluorescence on adding increasing amounts of Compound 1 ([2]; human plasma with HCl): increase in fluorescence
Fluorescence on adding increasing amounts of Compound 1 ([2]; human plasma, no acid): did not show any increase in fluorescence
